From the DeepSol protein solubility set

Experiment: soluble on expression in E. coli; label from the status in PepcDB or PDB records

Soluble on expression in E. coli, not soluble:
MGSDKIHHHHHHMENLKTYFYTEDGVVKAVDGVSFEVREGETLGIVGESGSGKSVTSLSIMRLLDQNGKIVDGKIIFKGRNLLELSENEMRKIRGKEIAMIFQEPMVALNPVFTIGDQIMEAIILHQNVSEKEARKMAIDLLRKVGIPEPEKRVDEYPHQLSGGMRQRAMIAMALSCRPSLLIADEPTTALDVTIQAQILELMKELQKEYGMAIILITHDMGVVAEMSDKVAVMYAGKVVEYGDVKTIFTEPKHPYTYALLESIPRIDVEQERLKSIPGNVPDPLNFPPGCKFHPRCEFFEKGKCDVEEPELEDLDGNHKVRCFFWQKLDEMRHAKSEV, MGSDKIHHHHHHMERSDAAMQPDAVSRPEIVMATRGITMLFPGTKALDNVDYNVYRGKVNVIIGENGAGKSTLMKILAGVQQPTSGQILLNGEAVRIADTRDAAAKGIGMVHQELNLSENLSVAENIFLGRELQKGVAPIDYLEQERIAAELMSRLDQAISPRTEVASLKVGQQQLVEIAKALADQADILILDEPTSALSKTEVEILFRVIRELTRQNVSIIYISHRLEELMAIGDYITILRDGCFQAEAAVSDIDVPWIVREMLGGDPVTSFLHSGRTFGAPILEAEHLTCLNDAGHQVVNDVSLMVREGEIVGIYGLMGAGRTELFECLLGIQNDYLGKIYLDSKPVSPRLSTAQRIRMGMSLVPEDRKKTGIFPLSSVASNLTIASLWRRLKYGMAIFQRQEQEVVASTVGRLAIKVSSPEVEIQALSGGNQQKVVIGRSLLTSPKVLLLDEPTRGIDVGAKADVFEMMVGLSEQGIGVLFSTSDLKEIMAVSDRILVMSNGKLTANIVRQSASESALVSASAQGF, MGSDKIHHHHHHMESLKKCFDLQGKEIVSIVGSGGKTSLMWALAKTYRKEAVLVSTTTKIGFPQRQLYDYFYTNHFEKITPNICGITLAGTAINNQTKLTMPAMTSFQTLFQHFTKVFLEADGSKQRPLKGWSSYEPVILKETTTTIGVLPISVIGQKIDETTIHRLPLFLELTDAQLQEPITETLLAQLIDHPKGLFKESQGQRILCLNQTHTRREFVQAMNVCLQLPKSCFEKLDKIIACNMELEKGLILWEKSVKTSKKN, MGSDKIHHHHHHMEVFMITKRPIYNQQLKCVAFEILSCRNVMLNEELTRQLYDLIYHTDTQLPLFVPFSLKKLLEQFETPINNPIILKLSADEIESVYSLTELQDSLFSIALLINTPQQLAWLNFAEYIGLTEQLMSKSDVTKVVQYSKAKNRKIIAYDLNQHVNFEKCKAMTMDYYCGDFLLNSIAEEGTEIAANKLNVLQLIQELQKEDCDLNEITHIIQADPLLSYQLLKLVNSVGFSSGPSIESIDQAVARLGIINLKKWVMLFSMKNISDKPIEVLESGLIRAHMAEELAKKSSNIFSQSAYTAGLLSILDCLLNKPMPALVEQITLAEEIKDALTNKSGPLGDLLSLVIAYEEGHWEEVTQLNINGIDLSQLYIDSLALVSQGTKIMSN, MGSDKIHHHHHHMEVKPFRPLIYRKEIDGMIAPPFDAITPKEEVELKRNKYNITYLTLPKGRDGIPHAKMLLQSWLENGVLIPMKEDVFIVLRQRFYVGDECINRYGLIAKVKVFPESGDVIPHERTFDMYVKERETLMDGISSQLEPIFLVTLKNDLPGYLKAITDGLKEDNTYFGPENVENFVYYINDKRKINKIISLLAEDKSIVADGHHRLQATKNIAARKSGGEREFWSYAMAYITSIHDPGVLVGGVNRVVSNKFRLDMNVLSKYFEINQVERLDETNINLFNGRLYSLKIRIPVYDNLIDASNDFILSKSASMNYTDIENEVIYTHDIYELMSLVNSGSYSFGIILPRWDKMKLIETLLSGRKLPQKSTYFYPKIPSGLAIDTALELRLS, MGSDKIHHHHHHMEVLRTENLKSYYILDIFGKKRVVKAVDDVNISIMENEIYGIAGESGCGKSTLLRALFAAIEPPQRIVGGKVLYRENGKEVDVYSLSDEERRRLRWSFISYVPQGSMSVLNPVVKIKETFKDFIESHTTGKTKEEAYEMAKEHIKELGLPIEILNAYPHQLSGGMRQRVTIALATVLSPKVIIADEPTTALDVVTQRGVVQLLKEIQSSRQNTIILVTHDMGVHANVTDRIAIMYAGKIIEEGKTEEIFENPMHPYTKYLIYSLPKFGDKGRRESAPGSPPSLADLPPGCSFHPRCPHAFDRCKKEVPPLKEYLPGHRVACWLVEEGKNAAS, MGSDKIHHHHHHMEVQLPKIKTVRVMLAGMTAQQESVFKMAFKMHNTTRYETVSPSDGSAVPDLVLADTDAEGGFELWKELAGRYKAIPVAVCSEKVPDSEVPYLPKPIRFETLFPMLRKLLQGENVYGKSFIAPADRSAKNNGNVQRTVTIRQFNPNKGLLGALRFAEKNRQDIAILHGNKPVLNCFPLDTTGFADRKCVKTRRIVQRRKFAGQLQDCSR, MGSDKIHHHHHHMFFIRVDSNQTISGGHIMRCLAIAKALIINGKDVTFLIADDNPVEVLKQNRVSYVILNSDWQDLMSDLEQTIKVLSQENDPYLLIDTYCITKEYVEGLKAYAKVGYLGSKSEYLGNLDFLINYSSYIDYNYYKNNYFNGTKLLLGISYAPLRDEFQNQEPHYREQVRNILITTGNTDNDGMVGLLLDRLRYLLKEKNIIANVIIGRMFNNKELLHVKYDDNSNVKLYENVSSMSTIMRNCDLAISANGTTIYELSAMAIPTISFAMVEEQVKSAEGLDALRVIDYCGTSYTDVNKCVKAIIDKALYYIENYDNRIRLAQNAHNLIDGNGCQKIIDELF, MGSDKIHHHHHHMFHTIDFSDIFSSDYSNKISFKKGEIIHSYRDYEEKTPQIGAILEGTAVLEGPTNEGRWMINALIGQHSLFGMESLLETKTAPELTEYRVRALENGTVLFIDREFLLNYLYANPQFFHLILDEVIVRYLFTSKNYKNINQAPIVKVTRILVEIIELLHLHQTEGAIELPVYVTQTFLADYCRSSRARVTEVLEELRESGLLLSKKPITISSHENLLNQIDSFQTGNGLLTR, MGSDKIHHHHHHMFIINELNKIVNEEVISFHMPGHKKGQVYKKLGYKDILKNLYKMDTTEILGTDNLHFPEGIIKNSQKKASRVFKSDYTCYLVNGSSCGIQSAIMSVCSPKSKIITNRDCHQSVINGCILGDIDIEYVPCEISEETNVLKGISISNVIDIIDKNLDAKAVLLTYPTYYGMTYDLEYICNYAHSKKMVVIVDEAHGAHLGLSERLPKTALEQGADIVVQSTHKTLPAFTQSSMIHIQGDRVDIDKILNMLRITESSSPSYLLLSSLELAVDIYENKGKELMEELLNNIITFKNKVDSNINIYDTNDKTKIFISSKNMGLTGYELENILRNKYNIQVELSNYYGVLLICTIGNTAEDFSSLETALNNVVKEDFKFEKLENKKYPVVIPKKILTPREAFYKTKKSVKIYDSIGKVCGECIVPYPPGISVISPGEVISKEIIDYLMFCHSKGMIVSGLKDVDLNFIQVIDLEDI, MGSDKIHHHHHHMFKRETKDFINIDPLQTGGKLTEEARQALLEWGDGYSVCDFCTTGRLDEIKTPPIHDFIHNQLPKFLGCDVARVTNGAREAKFAVMHSLAKKDAWVVMDENCHYSSYVAAERAGLNIALVPKTDYPDYAITPENFAQTIEETKKRGEVVLALITYPDGNYGNLPDVKKIAKVCSEYDVPLLVNGAYAIGRMPVSLKEIGADFIVGSGHKSMAASGPIGVMGMKEEWAEIVLRRSEKYKNKEVELLGCTARGATIITLMASFPHVRERIKRWDEEVEKARRFAAEMEKLGIKQLGDNPHNHDLMFFHAEVLYEISKKAKGGRFFLYRELKSRKIHGIKPGLTRYFKLSTYGLSDEEVDYVLNAFKEIIEKYS, MGSDKIHHHHHHMFLEKLVEMARGKGKKLAVAAANDDHVIEAVYRAWRERVCEPVLFGPEEEITRIIEELVPEWKNPQIIDCPPEEAGRLAVEAVSKGECDFLMKGKIKTGDLMKIYLDERYGLRTGKTMAMVSVMEIPDFPRPLIISDPGMLISPTLEQKVDMIEHCVRVANVMGLETPKVAVVGAIEVVNPKMPITMEAAILSKMNQRGQIKGCIVDGPFALDNVVSEEAAKKKGIQSPVAGKADILILPDIEAANILYKALVFLAKAKSASTILGGKVPVVLTSRADSEETKFYSIALSAVFA, MGSDKIHHHHHHMFLKNCWYVAAWSHEIDRTLQPQTFLGENVVLYRKQDGTPVALEDACPHRKLPLSDGALQGDTVECGYHGLTFDCAGACVAAPTQKDAIPKRATVKSYPVVDRYRFTWIWMGDPAEADPDLIFPIPNFDDPTWGKTDGGVLDIDCNYLWVVDNLLDPSHVAWVHVTSFAGGGTDGAPLQVDKTEHGVQVTRWIFGEPPSPYYENLLAFQGPCDRLQHYEMTRPAMATNMSIYTPPGTGGYGRSPVENTFINISYNFMTPITEDKTRYFWFQHRNSEPDNVEMSETMNKGAVMAFHEDKAILEKVHTGMKHAVTPHIDLGLDAGAKTFRLGLQKAIETENA, MGSDKIHHHHHHMFLSELYRYPVKSGQAQSLKASPVGLLGLQGDRRWMVVEEENGRFLTQRAWPQLGQIDASDDDSGQLLLQAPGQAPLRVPVPPADDALRGVTIWRDTLRVPDAGDAAAAWLSELLGKAVRLVHCPEQRARYLPNGYGLNSDRAAFPDGFPLLLIGQGSLDELNRRIGRPMSMRRFRPNLVVQGAEPFAEDGWKRIRIGSLVFRVLKPSVRCIFTTIDPVTGERSADREPMATLKTFREKEGDVLFGQNLAVDGSGWLEVGMEVEILE, MGSDKIHHHHHHMFLSPYFLKQNQSISVSAQQASDFAKKIAQDFNPIHDVGAKRFCVPGDLLFALVLTQYGLSQSMKFTFAGMVGDGVELQFPEQVNDSFSICDNRDKTYLNVSRLGDISRCDAQTESFIRHYVAFSGHNFIDILMPLMKQHQVMINPDRPLVIYESMSFDLTTLDFVEVQLSLVQQELKIDGKRGDVTLHFELHSGDTLVGTGIKTLVMSGLRAYEEDQVQQMCAAYEGRKTDF, MGSDKIHHHHHHMFPTFFGISSIHGGQMAHSVSQAYLHISPPQVIGCHDGTTFNSYTNDDSARRYNSKSANKAPPAGQAFGCHESTTFKRTQQVNTPLDVIHPNSNIPNLPPPAFGKCPYPPWQHLDAANTIFIFPPLTVTLITNSRRVSAAAYDSNAIESVMQGTLRKMRTRLDEQGLANYQLLVGDNEVELNPFIGSSIKLVHTGNIFCCNCGKKTKKSYSQGHCFVCMKKLASCDMCIMKPETCHFAEGTCREPEWGEANCFVPHYVYLSNTSGLKVGITRHTQLPTRWIDQGATQGLPILKVSSRQLSGLIEVELAKMIADKTNWRAMLKGNADPLPLKQHAEELLPQIEQHIHSLAMAHGEYAIERLNEEIVAIDYPVSEFPTKIASHNFDKDPVVSGTLLGIKGQYLIFDTGVINLRKFTAYEVSFEAE, MGSDKIHHHHHHMFQPPLIAFLTDFGLEDAFVGVMKGVIATICREAQVIDLTHAISAQNVRQAAFHLDRSISYFPAETIFVCVVDPGVGTARRAIGVEAGPYRFIAPDNGLLTPVFERWADAKCHELTNPAYQLANPSATFHGRDLFSPAAAHLATGVPLNAFGSAIDVANCTRIELWQNKPCDNGKVWTGEVIATDHFGNLITSFEASMLSDGEDWTVKAGNAEPLPILRTYGEVEQGKPLAYIGSSGMIEIAIRNGSASAELRVGGGDEVELRKG
